Test system: rox sites (Floxed (rox)-STOP Fluc reporter) in HEK293 cells
Test: luciferase assay of Dre-rox DNA recombination in HEK293 cells
Assay type: cell-based, human
Conditions: 5 ng plasmid, TMP 10 nM or 500 nM or DMSO, 24 or 48 hours
Method: For constructing the luciferase reporters detecting for the activities of Flp-FRT recombinase, VCre-Vlox recombinase and Dre-rox recombinase, the FRT site ([…]: SEQ ID No: 37), the Vlox site ([…]: SEQ ID No: 38), the rox site ([…]: SEQ ID No: 39), were inserted into HindIII and KpnI sites and ClaI and EcoRI sites in the pcDNA3.1 (+) vector of the luciferase reporter (of loxP-stop-loxP-Fluc).
For luciferase assay, HEK 293 cells were plated at 25,000 cells per well on a 96-well flat white microplate (Thermo Fisher Scientific), and were then cultured for 24 hours at 37° C. in 5% CO2. The cells were transfected with cDNAs encoding destabilized Cre along with the luciferase reporter (loxP-stop-loxP Fluc), using X-tremeGENE9 reagent (Merck Millipore) at 37° C. The total amount of DNA was 50 ng per well. Twenty-four hours after the transfection, TMP or DMSO was added into the cells, and the cells were further cultured for 24 hours or 48 hours. Just before the luciferase assay, the medium was replaced with Hanks' balanced salt solution (HBSS) (Thermo Fisher Scientific) containing 0.2 mM D-luciferin potassium salt. Bioluminescence measurement was performed for 1 second per well at room temperature using a Centro XS^3 LB 960 plate-reading luminometer (Berthold Technologies).

B1: SPEED-Dre: split Dre (a.a. 2-150 and 151-342), single DD on the N-terminal and C-terminal sides; SEQ ID No: 24 (protein)
chain: MVSKYPYDVPDYARSGGSGGMISLIAALAVDYVIGMENAMPWNLPADLAWFKRNTLNKPVIMGRHTWESIGRPLPGRKNIILSSQPSTDDRVTWVKSVDEAIAACGDVPEIMVIGGGRVIEQFLPKAQKLYLTHIDAEVEGDTHFPDYEPDDWESVFSEFHDADAQNSHSYCFEILERRGGSGGSGGKLVPKKKRKVGGSELIISGSSGGFLRNIGKEYQEAAENFMRFMNDQGAYAPNTLRDLRLVFHSWARWCHARQLAWFPISPEMAREYFLQLHDADLASTTIDKHYAMLNMLLSHCGLPPLSDDKSVSLAMRRIRREAATEKGERTGQAIPLRWDDLKLLDVLLGSGSGATNFSLLKQAGDVEENPGPLESRSERLVDLRNRAFLFVAYNTLMRMSEISRIRVGDLDQTGDTVTLHISHTKTITTAAGLDKVLSRRTTAVLNDWLDVSGLREHPDAVLFPPIHRSNKARITTTPLTAPAMEKIFSDAWVLLNKRDATPNKGRYRTWTGHSARVGAAIDMAEKQVSMVEIMQEGTWKKPETLMRYLRRGGVSVGANSRLMDSGGSGGSGGMISLIAALAVDYVIGMENAMPWNLPADLAWFKRNTLNKPVIMGRHTWESIGRPLPGRKNIILSSQPSTDDRVTWVKSVDEAIAACGDVPEIMVIGGGRVIEQFLPKAQKLYLTHIDAEVEGDTHFPDYEPDDWESVFSEFHDADAQNSHSYCFEILERR
modifications: MISC_FEATURE - HAtag; DOMAIN 21..179 Degradation Domain; SIGNAL 190..197 Nuclear Localization Signal; MISC_FEATURE - N-terminal side of Dre; MISC_FEATURE - P2A; MISC_FEATURE - C-terminal side of Dre; DOMAIN 575..733 Degradation Domain; Bacteriophage D6
background and TMP-dependent DNA recombination activity: results similar to those of SPEED-Cre
